The values below come from patent US20230011916A1, “METHODS OF CANCER TREATMENT USING ANTI-OX40 ANTIBODIES IN COMBINATION WITH PI3 KINASE DELTA INHIBITORS” (BEIGENE, LTD., priority 2019, published 2023).

This test deals with mouse OX40-His (Cat: ab221028, Abcam) (mouse) (UniProt P47741). As to the kind of experiment: ELISA on coated mouse OX40-His.
mouse OX40-His (Cat: ab221028, Abcam) (mouse), sequence (P47741 20-211 limits assumed): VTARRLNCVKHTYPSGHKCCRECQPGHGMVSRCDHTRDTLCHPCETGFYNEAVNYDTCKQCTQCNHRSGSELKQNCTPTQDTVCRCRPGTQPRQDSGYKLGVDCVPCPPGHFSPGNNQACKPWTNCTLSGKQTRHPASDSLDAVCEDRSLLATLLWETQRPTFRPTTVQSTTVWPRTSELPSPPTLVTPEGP

B1: 1A7.gr1 (antibody, from another filing, V domains shown)
VH: EVQLVQSGAEVKKPGASVKVSCKASGYTFTDSYMSWVRQAPGQGLEWIGDMYPDNGDSSYNQKFRERVTITRDTSTSTAYLELSSLRSEDTAVYYCVLAPRWYFSVWGQGTLVTVSS
VL: DIQMTQSPSSLSASVGDRVTITCRASQDISNYLNWYQQKPGKAPKLLIYYTSRLRSGVPSRFSGSGSGTDFTLTISSLQPEDFATYYCQQGHTLPPTFGQGTKVEIK
For the molecule B1, the EC50 stood at 0.11 mg/L.
